This note sets out measurements from article PMC3830444 (BMC Biochemistry, 2013).

The target in the test is human α-thrombin (human, UniProt P00734 364-622). In words: ELISA. As to conditions: both partners purified. (ELISA stands for enzyme-linked immunosorbent assay.)

Ends that are not written are not given here.

Regarding Ac-GDFEPIPEDAYDE (not fully specified (C-terminus)) [H6HV3_(54-66)G6 synthetic peptide], the IC50 – broadly, the midpoint of a concentration-inhibition curve – came out at 1400 nM.
To Ac-GDFEPIPEDAYDE [H6HV3_(54-66) synthetic peptide] belongs 740 nM.
